Holding throughout (details): protein: recombinant; tags: GST (N-terminal, pGEX-4T-3); blunt
Data set [1] addresses T1, MaSPL44 (UniProt A0A804KAB2 1-473).
T1 sequence: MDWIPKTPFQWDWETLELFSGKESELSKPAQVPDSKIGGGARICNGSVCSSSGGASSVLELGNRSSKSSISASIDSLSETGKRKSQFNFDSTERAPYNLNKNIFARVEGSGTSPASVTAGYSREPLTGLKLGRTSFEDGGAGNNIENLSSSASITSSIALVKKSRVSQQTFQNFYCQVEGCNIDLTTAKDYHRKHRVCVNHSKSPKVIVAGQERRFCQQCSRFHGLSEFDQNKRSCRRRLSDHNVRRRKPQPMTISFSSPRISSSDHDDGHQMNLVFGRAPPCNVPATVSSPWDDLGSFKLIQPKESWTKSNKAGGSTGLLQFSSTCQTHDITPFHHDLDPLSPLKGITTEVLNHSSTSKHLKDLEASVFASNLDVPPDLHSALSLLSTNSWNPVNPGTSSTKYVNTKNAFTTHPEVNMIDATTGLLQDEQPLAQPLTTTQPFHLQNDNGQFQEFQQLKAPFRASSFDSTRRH
In words: EMSA; Chemiluminescent EMSA Kit (Thermo Fisher); buffer, salt, pH and temperature not stated.

In data set [2] the target is T2, MaSPL5 (UniProt A0A804I0H4 1-393).
T2 sequence: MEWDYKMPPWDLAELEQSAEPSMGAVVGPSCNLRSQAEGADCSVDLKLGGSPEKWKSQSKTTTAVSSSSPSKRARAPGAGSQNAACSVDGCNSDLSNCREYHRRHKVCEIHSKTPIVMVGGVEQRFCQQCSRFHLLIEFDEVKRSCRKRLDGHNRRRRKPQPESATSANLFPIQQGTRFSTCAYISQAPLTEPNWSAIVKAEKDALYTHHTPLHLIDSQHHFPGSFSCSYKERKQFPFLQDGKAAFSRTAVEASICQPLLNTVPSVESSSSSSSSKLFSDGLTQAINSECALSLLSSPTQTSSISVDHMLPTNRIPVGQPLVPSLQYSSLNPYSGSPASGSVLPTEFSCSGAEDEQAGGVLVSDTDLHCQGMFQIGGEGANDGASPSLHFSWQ
The data set is described as above.

The target in data set [3] is T3, MaSPL4 (UniProt A0A804HZD8 1-178).
T3 sequence: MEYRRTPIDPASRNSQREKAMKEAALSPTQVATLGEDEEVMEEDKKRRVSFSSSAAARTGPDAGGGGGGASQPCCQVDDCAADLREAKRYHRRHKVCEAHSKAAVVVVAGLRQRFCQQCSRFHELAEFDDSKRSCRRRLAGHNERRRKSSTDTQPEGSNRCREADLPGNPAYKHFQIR
The description is as above.

The target of data set [4] is T1, MaSPL44. Description: competition; unlabeled competitor vs biotin-N1 (EMSA); Chemiluminescent EMSA Kit (Thermo Fisher); buffer, salt, pH and temperature not stated. A general note: Mobility shift assays separate free from complexed probe on a gel.
Data set [5] concerns the target T2, MaSPL5. The description is as above.
Data set [6] deals with T3, MaSPL4. Described as above.

The text below walks through data of paper PMC11720309, “Transcriptional regulation of miR528-PPO module by miR156 targeted SPLs orchestrates chilling response in banana”.

B1: MamiR528pro-probe (dsDNA)
DNA 1: GCGCAGTACAGTGCAGTACTAAGATACTACACAAACCACACAATAGAAGTACCACTATC
DNA 2: GATAGTGGTACTTCTATTGTGTGGTTTGTGTAGTATCTTAGTACTGCACTGTACTGCGC
On to B1, for which the binding result in the data set with MaSPL44 [1], in the data set with MaSPL5 [2] and with MaSPL4 [3] was “binds” in each case.

B2: MamiR528pro-mut-probe (dsDNA)
DNA 1: GCGCAAAAAAGTGCAAAAATAAGATACTACACAAACCACACAATAGAAAAAACACTATC
DNA 2: GATAGTGTTTTTTCTATTGTGTGGTTTGTGTAGTATCTTATTTTTGCACTTTTTTGCGC
On to B2, for which the binding result with MaSPL44 [4], with MaSPL5 [5] and in the data set with MaSPL4 [6] was “no binding” in each case.
